Data set [1] addresses T1, TbCBC-tetramer (TbCBP20-TbCBP110-TbCBP30-TbCBP66) (Trypanosoma brucei, UniProt Q585L4).
T1 construct: gene Tb06.28P18.1190; full-length subunits co-expressed in Hi5 insect cells (biGBac), HisTrap and heparin purified, tetramer 230 kDa
T1 sequence (Q585L4 1-187): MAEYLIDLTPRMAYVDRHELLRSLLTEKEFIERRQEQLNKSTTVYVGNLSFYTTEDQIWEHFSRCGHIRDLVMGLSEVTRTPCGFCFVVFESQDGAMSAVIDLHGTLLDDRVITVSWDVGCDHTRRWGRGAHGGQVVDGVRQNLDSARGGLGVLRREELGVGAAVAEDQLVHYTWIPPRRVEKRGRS
T1 sequence (Q38BU6 1-1004 partner): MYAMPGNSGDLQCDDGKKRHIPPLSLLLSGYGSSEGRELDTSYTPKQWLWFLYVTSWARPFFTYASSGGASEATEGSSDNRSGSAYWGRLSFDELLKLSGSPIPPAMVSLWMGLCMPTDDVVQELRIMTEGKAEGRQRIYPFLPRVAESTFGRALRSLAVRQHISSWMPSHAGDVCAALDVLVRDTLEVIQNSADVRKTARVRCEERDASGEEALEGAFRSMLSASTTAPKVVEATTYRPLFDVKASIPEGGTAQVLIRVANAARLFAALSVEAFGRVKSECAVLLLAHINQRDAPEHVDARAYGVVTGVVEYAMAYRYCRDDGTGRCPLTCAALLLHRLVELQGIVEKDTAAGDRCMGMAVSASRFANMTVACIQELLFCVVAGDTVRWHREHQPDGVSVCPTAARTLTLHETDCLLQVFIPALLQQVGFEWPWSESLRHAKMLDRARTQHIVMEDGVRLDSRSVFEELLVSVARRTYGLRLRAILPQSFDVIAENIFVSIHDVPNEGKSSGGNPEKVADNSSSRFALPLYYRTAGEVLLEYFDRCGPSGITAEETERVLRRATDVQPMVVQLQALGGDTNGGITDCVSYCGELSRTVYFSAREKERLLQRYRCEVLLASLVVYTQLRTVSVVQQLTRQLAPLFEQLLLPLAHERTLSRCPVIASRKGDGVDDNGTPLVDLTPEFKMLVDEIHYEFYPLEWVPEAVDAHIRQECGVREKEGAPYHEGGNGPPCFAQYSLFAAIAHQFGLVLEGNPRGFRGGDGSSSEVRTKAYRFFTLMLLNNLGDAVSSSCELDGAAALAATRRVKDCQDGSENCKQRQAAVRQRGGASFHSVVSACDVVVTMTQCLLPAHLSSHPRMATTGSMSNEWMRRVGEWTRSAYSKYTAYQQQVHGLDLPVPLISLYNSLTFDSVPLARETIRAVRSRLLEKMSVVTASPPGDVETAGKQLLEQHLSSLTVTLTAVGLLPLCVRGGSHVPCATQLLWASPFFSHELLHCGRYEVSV
T1 sequence (Q387Z0 1-270 partner): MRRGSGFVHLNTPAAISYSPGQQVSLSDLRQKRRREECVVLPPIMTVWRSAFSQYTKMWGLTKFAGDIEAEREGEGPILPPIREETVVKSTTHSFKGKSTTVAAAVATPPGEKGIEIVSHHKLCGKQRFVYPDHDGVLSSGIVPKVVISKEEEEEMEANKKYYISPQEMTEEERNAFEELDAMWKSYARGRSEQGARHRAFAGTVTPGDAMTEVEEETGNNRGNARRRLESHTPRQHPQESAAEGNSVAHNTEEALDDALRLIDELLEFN
The data set is described as follows: competition pull-down on immobilised γ-aminophenyl-m7GTP resin, SDS-PAGE. The following applies: pH 7.5, 200 mM NaCl, 5 mM MgCl2, 4 °C; competitive at the cap site. Type of data set: binding.

Data set [2] concerns the target T1, TbCBC-tetramer (TbCBP20-TbCBP110-TbCBP30-TbCBP66). The data set is described as follows: cryo-EM structure, […] Å. Type of data set: binding. The following applies: 2-fold excess of ligand; m7GMP part resolved in the TbCBP20 cap pocket.
Data set [3] concerns TbCBP66* R348E (Trypanosoma brucei). The data set can be described thus: fluorescence polarization. As to conditions: EMSA: 20 mM HEPES pH 7.5, 50 mM NaCl, 5 mM MgCl2, Tween (0.05% in RNA buffer), RNA stock 50 nM mixed 1:1, 30 min on ice, 6% native PAGE 4 C; FP: same buffer, 0. On the technique in general: Fluorescence polarisation rises when a labelled molecule tumbles more slowly, as on binding a larger partner.

Data set [4] relates to TbCBP66* (Trypanosoma brucei). The data set can be described thus: EMSA. The following applies: EMSA: 20 mM HEPES pH 7.5, 50 mM NaCl, 5 mM MgCl2, Tween (0.05% in RNA buffer), RNA stock 50 nM mixed 1:1, 30 min on ice, 6% native PAGE 4 C; FP: same buffer, 0.
Data set [5] concerns the target TAMRA-labeled TbCBP30 peptide comprising residues R34-G60 (Trypanosoma brucei). The data set can be described thus: MST; 50 nM N-terminally TAMRA-labeled peptide mixed 1:1 with a serial dilution of TbCBC-dimer; 20 mM HEPES, 250 mM NaCl, 5 mM MgCl, 0.1 % Tween in the peptide buffer; 30 min on ice; Monolith NT.115; binding quantified from the ligand-dependent increase in the initial fluorescence; n = 3.

As to `C[n+]1cn([C@@H]2O[C@H](COP(=O)(O)OP(=O)(O)OP(=O)(O)O)[C@@H](O)[C@H]2O)c2nc(N)[nH]c(=O)c21` [m^7GTP], the “competition pull-down on immobilised γ-aminophenyl-m7GTP resin, SDS-PAGE” value in data set [1] is reported as “m^7GTP competed efficiently with cap4-SL RNA binding to TbCBC”. Consider `C[n+]1cn([C@@H]2O[C@H](COP(=O)(O)OP(=O)(O)OP(=O)(O)OC[C@H]3O[C@@H](n4cnc5c(N)ncnc54)[C@H](O)[C@@H]3O)[C@@H](O)[C@H]2O)c2nc(N)[nH]c(=O)c21` [m^7GpppA], for which the “cryo-EM structure, 2.4 Å” value in data set [2] is reported as “The m^7GMP portion of the cap-analog is coordinated by TbCBP20”. One may read the Kd as the free concentration of one partner at which half of the binding sites on the other are occupied at equilibrium, for simple one-to-one binding. Higher therefore signals lower affinity. With “AACUAACGCUAUUAUUAGAACAGUUUCUGUACUAUAUUG [OH-SLe 3'-6FAM (39 nt SL RNA exon, FP)]”, the Kd in data set [3] came out at 9.81 µM. In data set [4], “AUUAGAACAGUUUCUGUACUAUAUUG [SL-hairpin_loop (A14-G39)]” registered a Kd of 390 nM. In turn, “TbCBC-dimer (TbCBP20-TbCBP110 dimer) (complex)” came in with a Kd in data set [5] of 980 nM.

Source of the values: publication PMC11735809, “Structural basis of Spliced Leader RNA recognition by the Trypanosoma brucei cap-binding complex” (Nature Communications, 2025).
